From publication PMC10933773, “Phosphorylation by ATR triggers FANCD2 chromatin loading and activates the Fanconi anemia pathway”

Assays:
Conditions in all cases: protein: recombinant;recombinant; tags: FLAG-HA;His; copies: 1;1; label: radiolabelled; fork: 29 bp duplex (S3[1-29] with S4[22-50]), unpaired arms 21 nt (3' of S3) and 21 nt (5' of S4)
[1] = target: FANCD2-10D;FANCI (human?;human?, UniProt Q9BXW9;Q9NVI1 1-1451;1-1328, S64D;S178D;S319D;T596D;T608D;S705D;S1257D;S1401D;S1404D;S1418D|); experiment: EMSA; stronger than WT and 10A; 25 mM Tris-HCl pH 7.5, 100 mM NaCl, 1 mM EDTA, 6% glycerol, 1 mM DTT, 1 nM DNA, room temperature 60-90 min; 4% PAGE 0.4x TBE at 4 C
[2] = target: FANCD2-10A;FANCI (human?;human?, UniProt Q9BXW9;Q9NVI1 1-1451;1-1328, S64A;S178A;S319A;T596A;T608A;S705A;S1257A;S1401A;S1404A;S1418A|); experiment: EMSA; 25 mM Tris-HCl pH 7.5, 100 mM NaCl, 1 mM EDTA, 6% glycerol, 1 mM DTT, 1 nM DNA, room temperature 60-90 min; 4% PAGE 0.4x TBE at 4 C
[3] = target: FANCD2 WT;FANCI (human?;human?, UniProt Q9BXW9;Q9NVI1 1-1451;1-1328, |); experiment: as above

Measured: binding result

FANCD2-10D;FANCI, sequence (Q9BXW9 whole entry S64D/S178D/S319D/T596D/T608D/S705D/S1257D/S1401D/S1404D/S1418D, chain 1 of 2): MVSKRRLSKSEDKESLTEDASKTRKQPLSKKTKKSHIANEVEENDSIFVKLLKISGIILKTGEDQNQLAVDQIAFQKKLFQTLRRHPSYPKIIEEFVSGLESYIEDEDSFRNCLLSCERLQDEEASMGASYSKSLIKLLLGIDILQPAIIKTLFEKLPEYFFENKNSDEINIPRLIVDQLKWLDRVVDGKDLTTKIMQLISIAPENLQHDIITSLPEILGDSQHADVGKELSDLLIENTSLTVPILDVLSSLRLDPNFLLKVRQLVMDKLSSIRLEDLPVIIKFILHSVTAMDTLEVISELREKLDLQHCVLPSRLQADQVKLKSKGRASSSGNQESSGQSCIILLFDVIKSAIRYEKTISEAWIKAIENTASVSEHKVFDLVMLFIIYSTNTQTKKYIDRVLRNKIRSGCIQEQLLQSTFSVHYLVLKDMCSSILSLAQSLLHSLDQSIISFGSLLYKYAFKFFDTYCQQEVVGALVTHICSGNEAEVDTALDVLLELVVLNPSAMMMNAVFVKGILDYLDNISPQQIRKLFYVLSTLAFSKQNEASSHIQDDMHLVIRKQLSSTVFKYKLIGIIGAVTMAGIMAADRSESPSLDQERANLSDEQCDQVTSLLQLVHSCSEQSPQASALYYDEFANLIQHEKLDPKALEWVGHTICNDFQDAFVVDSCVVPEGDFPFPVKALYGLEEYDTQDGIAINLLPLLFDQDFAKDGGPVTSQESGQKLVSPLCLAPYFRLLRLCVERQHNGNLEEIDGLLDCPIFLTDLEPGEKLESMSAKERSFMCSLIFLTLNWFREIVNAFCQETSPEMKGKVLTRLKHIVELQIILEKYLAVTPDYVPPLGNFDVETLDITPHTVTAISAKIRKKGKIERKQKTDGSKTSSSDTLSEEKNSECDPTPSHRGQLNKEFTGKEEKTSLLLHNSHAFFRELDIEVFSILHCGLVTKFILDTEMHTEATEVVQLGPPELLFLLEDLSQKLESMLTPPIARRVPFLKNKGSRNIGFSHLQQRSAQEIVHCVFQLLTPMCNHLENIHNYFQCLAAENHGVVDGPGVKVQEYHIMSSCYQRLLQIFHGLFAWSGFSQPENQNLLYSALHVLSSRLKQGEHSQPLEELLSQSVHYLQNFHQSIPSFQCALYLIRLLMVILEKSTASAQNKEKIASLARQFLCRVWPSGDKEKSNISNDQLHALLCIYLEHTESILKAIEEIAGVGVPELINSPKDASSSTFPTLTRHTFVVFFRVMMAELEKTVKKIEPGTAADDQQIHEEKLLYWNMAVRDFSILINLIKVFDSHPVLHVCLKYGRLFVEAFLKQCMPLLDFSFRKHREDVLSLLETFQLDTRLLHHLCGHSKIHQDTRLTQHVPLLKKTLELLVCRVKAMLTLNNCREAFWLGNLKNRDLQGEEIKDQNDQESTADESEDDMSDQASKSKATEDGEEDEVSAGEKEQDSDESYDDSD
FANCD2-10D;FANCI, sequence (Q9NVI1 whole entry, chain 2 of 2): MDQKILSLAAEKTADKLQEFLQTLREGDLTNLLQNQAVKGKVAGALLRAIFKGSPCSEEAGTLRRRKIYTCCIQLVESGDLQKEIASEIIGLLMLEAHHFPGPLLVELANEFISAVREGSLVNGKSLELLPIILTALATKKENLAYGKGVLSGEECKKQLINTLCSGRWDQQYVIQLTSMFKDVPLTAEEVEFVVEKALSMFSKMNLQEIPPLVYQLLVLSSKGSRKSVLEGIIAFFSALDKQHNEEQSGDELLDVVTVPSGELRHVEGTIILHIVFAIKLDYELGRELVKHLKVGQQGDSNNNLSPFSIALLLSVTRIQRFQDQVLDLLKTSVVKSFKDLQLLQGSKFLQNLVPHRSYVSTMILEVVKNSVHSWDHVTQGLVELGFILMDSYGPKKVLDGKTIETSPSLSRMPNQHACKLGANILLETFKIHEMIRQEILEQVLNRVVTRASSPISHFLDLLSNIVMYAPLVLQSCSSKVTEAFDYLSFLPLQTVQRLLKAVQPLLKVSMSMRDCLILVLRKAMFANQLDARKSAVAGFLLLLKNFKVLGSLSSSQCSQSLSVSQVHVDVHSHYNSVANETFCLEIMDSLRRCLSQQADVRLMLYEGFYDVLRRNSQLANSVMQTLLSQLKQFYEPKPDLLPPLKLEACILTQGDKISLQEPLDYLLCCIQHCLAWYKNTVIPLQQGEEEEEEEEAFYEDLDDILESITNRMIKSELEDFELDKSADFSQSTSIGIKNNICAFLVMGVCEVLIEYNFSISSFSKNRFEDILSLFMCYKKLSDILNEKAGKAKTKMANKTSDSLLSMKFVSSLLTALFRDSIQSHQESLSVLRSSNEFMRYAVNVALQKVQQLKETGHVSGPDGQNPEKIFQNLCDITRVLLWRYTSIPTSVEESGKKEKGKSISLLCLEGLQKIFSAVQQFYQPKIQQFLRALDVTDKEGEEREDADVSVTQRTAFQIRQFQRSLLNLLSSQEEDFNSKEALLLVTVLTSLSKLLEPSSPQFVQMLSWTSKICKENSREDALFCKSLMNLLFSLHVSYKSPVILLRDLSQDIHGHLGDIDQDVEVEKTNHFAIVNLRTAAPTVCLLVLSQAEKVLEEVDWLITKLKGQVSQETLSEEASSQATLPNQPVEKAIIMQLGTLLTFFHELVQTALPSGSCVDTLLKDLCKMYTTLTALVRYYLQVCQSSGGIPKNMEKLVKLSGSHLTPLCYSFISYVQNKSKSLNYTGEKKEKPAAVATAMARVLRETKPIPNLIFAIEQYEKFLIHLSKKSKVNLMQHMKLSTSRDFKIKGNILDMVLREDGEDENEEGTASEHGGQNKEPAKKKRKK
FANCD2 WT;FANCI, sequence (Q9BXW9 whole entry, chain 1 of 2): as the sequence (Q9BXW9 whole entry S64D/S178D/S319D/T596D/T608D/S705D/S1257D/S1401D/S1404D/S1418D, chain 1 of 2) above, with D64S, D178S, D319S, D596T, D608T, D705S, D1257S, D1401S, D1404S, D1418S counted along it
FANCD2 WT;FANCI, sequence (Q9NVI1 whole entry, chain 2 of 2): as the sequence (Q9NVI1 whole entry, chain 2 of 2) above
FANCD2-10A;FANCI, sequence (Q9BXW9 whole entry S64A/S178A/S319A/T596A/T608A/S705A/S1257A/S1401A/S1404A/S1418A, chain 1 of 2): as the sequence (Q9BXW9 whole entry S64D/S178D/S319D/T596D/T608D/S705D/S1257D/S1401D/S1404D/S1418D, chain 1 of 2) above, with D64A, D178A, D319A, D596A, D608A, D705A, D1257A, D1401A, D1404A, D1418A counted along it
FANCD2-10A;FANCI, sequence (Q9NVI1 whole entry, chain 2 of 2): as the sequence (Q9NVI1 whole entry, chain 2 of 2) above

B1: ICL14 Y-shaped DNA (stalled fork mimic) (dsDNA)
DNA 1: CATTGTGAATTCGCCTCTCTGTCTAGCCGAAGCTCGAAACGATCTTGTGC
DNA 2: GTCCATCAAAGTTCGACTGTGCGGCTAGACAGAGAGGCGAATTCACAATG
binds: [1] | [2] | [3]
